Laboratory results from patent US20260265354A1 (JIANGSU MABWELL HEALTH PHARMACEUTICAL R AND D, published 2026).
Where a chain is given by its changes, count along the chain named.

B1: Antibody MM11 (antibody, mouse IgG1, kappa, V domains shown)
VH: DVQLQESGPGLVKPSQSLSLTCSVTGYSITSNFYWNWIRQFPGNRLEWMGYISYDGSNNYNPSLKNRISISRDTSKNQFFLKLNSVTTEDTATYYCVRADYWGQGTLVTVSA
VL: DTVMTQTPLSLPVSLGDQASISCRSSQSLESSDGHAYLNWYLQKPGQSPQLLIYRVSNRFSGVLHRFSGSGSGTDFTLKISRVEAEDLGVYFCLQFTHVPFTFGSGTKLEIKR
notes: Mouse monoclonal antibody from hybridoma; also called Nectin-4 mouse monoclonal antibody MM11; mouse antibody MM11
B2: Antibody R012 (antibody, V domains shown)
VH: SKSVEESGGRLVTPGTPLTLTCTVSGFSLSTYAMSWVRQAPGKGLEYIGIISGRGTTYYASWLKGRFTISKTSTTVDLKITSPTTEDTATYFCARDAGISDVYTGYFNLWGQGTLVTVSS
VL: QPVLAQLPSASAALGASAKLTCTLSSAHRTYTIAWYQQQQGEAPRYLMMLKSDGSYTKGTGVPDRFSGSSSGADRYLIISSVQAADEADYYCGADDSGGYVFGGGTQLTVTG
notes: Rabbit monoclonal antibody from phage display; also called Nectin-4 rabbit monoclonal antibody R012; rabbit antibody R012
B3: Antibody R036 (antibody, V domains shown)
VH: SQSVEESGGRLVTPGTPLTLTCTVSGFSLSSYAMSWVRQAPGKGLEYIGIIGGRGTTYYAIWAKGRFTISKTSTTVDLKITSPTTEDTATYFCARDAGTTYVGTTYVATGYFNLWGQGTLVTVSS
VL: B2 VL with A5T, L7P, R29K, M49I, K58R, A85D
notes: Rabbit monoclonal antibody from phage display; also called Nectin-4 rabbit monoclonal antibody R036; rabbit antibody R036

The binders below were run against T1, recombinant human Nectin-4 protein (human, UniProt Q96NY8 32-349) (assay: ELISA, coated antigen, antibody at 10 ng/ml).
T1 construct: Prepared in-house (Jiangsu Mabwell) by transient transfection of CHO cells; also called PVRL-4; PRR-4
T1 sequence: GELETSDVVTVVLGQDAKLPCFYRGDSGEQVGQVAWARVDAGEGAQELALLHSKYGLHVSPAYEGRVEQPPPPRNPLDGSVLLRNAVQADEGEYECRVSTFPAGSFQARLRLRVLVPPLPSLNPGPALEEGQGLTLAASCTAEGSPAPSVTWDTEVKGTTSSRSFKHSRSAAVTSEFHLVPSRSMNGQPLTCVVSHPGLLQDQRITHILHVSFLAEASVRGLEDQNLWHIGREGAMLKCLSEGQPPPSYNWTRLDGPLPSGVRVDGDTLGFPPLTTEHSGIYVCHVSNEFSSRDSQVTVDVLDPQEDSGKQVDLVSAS
Protocol: (§1) Coating: Nectin-1, Nectin-2, Nectin-3, Nectin-4, Nectin-like-1, Nectin-like-2, Nectin-like-3, Nectin-like-4, and Nectin-like-5 were diluted to 5 μg/ml in coating buffer (carbonate buffer, pH 9.6) respectively. A 96-well plate was coat with 100 μl per well and incubated overnight at 2-8° C.;
(§2) Sample loading: The plate was taken out, patted dry, and washed twice with 200 μl/well of PBST, then patted dry. The Nectin-4 antibodies prepared in Example 1 (antibody MM11, antibody R012, and antibody R036) were diluted with 1% BSA/PBST to concentrations of 10 μg/ml, 1 μg/ml, 100 ng/ml, and 10 ng/ml, respectively. 1% BSA/PBST solution for dilution was set as a blank control. 100 μl per well was added to the 96-well plate, and incubated at room temperature for 2 hours;
(§3) Reaction termination and plate reading: 100 μl/well of 1 mol/L H3PO4 was added to terminate the reaction and the plated was read. The absorbances of wells in the plate at 450 nm with 650 nm as reference wavelength were read and recorded as OD_{450 nm-650 nm}.

Compared with B1, B2 is higher in OD detection value: 0.58 OD450 nm-650 nm for the first, 0.748 OD450 nm-650 nm for the second.

With B3 the OD detection value was 0.73 OD450 nm-650 nm.

These binders were tested against T2, Nectin-like-1 (UniProt Q8N126 25-330, limits assumed) (assay: ELISA, coated antigen, antibody at 10 ng/ml).
T2 construct: Bought recombinant protein; also called CADM3; IgSF4B
T2 sequence (looked up): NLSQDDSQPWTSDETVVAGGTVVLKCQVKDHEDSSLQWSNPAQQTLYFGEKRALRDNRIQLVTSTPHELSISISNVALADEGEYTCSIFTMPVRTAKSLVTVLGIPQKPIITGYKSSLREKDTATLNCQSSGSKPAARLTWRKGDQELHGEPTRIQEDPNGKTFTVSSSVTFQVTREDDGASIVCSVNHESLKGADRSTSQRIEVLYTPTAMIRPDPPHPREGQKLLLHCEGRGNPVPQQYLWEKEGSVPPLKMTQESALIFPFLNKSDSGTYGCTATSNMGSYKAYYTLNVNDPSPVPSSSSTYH
Protocol: as §1, §2, §3

Compared with B1, B2 is higher in OD detection value: 0.006 OD450 nm-650 nm for the first, 0.008 OD450 nm-650 nm for the second.

For B3, the OD detection value was 0.007 OD450 nm-650 nm.

These binders were tested against T3, Nectin-3 (UniProt Q9NQS3 58-404, limits assumed) (assay: ELISA, coated antigen, antibody at 10 ng/ml).
T3 construct: Bought recombinant protein; also called CD113; PVRL-3
Protocol: as §1, §2, §3

T3 sequence (Q9NQS3 58-404 limits assumed): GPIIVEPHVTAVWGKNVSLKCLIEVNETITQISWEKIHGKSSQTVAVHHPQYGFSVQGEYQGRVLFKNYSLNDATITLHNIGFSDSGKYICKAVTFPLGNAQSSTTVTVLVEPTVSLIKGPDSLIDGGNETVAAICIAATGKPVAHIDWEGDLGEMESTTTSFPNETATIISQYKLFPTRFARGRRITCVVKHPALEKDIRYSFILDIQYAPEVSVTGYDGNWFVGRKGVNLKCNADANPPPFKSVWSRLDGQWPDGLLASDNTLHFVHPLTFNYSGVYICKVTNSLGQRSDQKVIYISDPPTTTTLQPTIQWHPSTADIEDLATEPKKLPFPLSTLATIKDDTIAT

Going from B1 to B2, the OD detection value rises from 0.006 OD450 nm-650 nm to 0.008 OD450 nm-650 nm.

With B3 the OD detection value was 0.007 OD450 nm-650 nm.

Each binder was assayed against T1, recombinant human Nectin-4 protein (assay: ELISA, coated antigen, antibody at 1000 ng/ml).
Protocol: as §1, §2, §3

First: B1
Second: B2
The OD detection value of the first is higher: 2.05 OD450 nm-650 nm for the first, 1.56 OD450 nm-650 nm for the second.

For B3, the OD detection value was 1.64 OD450 nm-650 nm.

These binders were tested against T4, Nectin-like-5 (UniProt P15151 21-343) (assay: ELISA, coated antigen, antibody at 1000 ng/ml).
T4 construct: Bought recombinant protein; also called CD155; PVR
T4 sequence (looked up): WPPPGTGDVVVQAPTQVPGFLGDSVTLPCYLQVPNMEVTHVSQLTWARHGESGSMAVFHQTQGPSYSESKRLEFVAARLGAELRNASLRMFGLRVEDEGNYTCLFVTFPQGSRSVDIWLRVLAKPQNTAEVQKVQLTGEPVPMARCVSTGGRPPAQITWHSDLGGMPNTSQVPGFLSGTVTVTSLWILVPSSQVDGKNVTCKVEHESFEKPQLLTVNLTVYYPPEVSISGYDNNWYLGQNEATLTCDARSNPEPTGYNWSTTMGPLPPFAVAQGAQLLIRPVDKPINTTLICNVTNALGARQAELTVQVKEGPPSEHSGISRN
Protocol: as §1, §2, §3

B1 and B2 are the same in OD detection value: 0.008 OD450 nm-650 nm for the first, 0.008 OD450 nm-650 nm for the second.

B3 gave an OD detection value of 0.009 OD450 nm-650 nm.

The binders below were run against T2, Nectin-like-1 (assay: ELISA, coated antigen, antibody at 1000 ng/ml).
Protocol: as §1, §2, §3

First: B1
Second: B2
The OD detection value of the first is lower: 0.008 OD450 nm-650 nm for the first, 0.01 OD450 nm-650 nm for the second.

Binder B3 has an OD detection value of 0.007 OD450 nm-650 nm.

What follows are binders tested against T5, Nectin-like-4 (UniProt Q8NFZ8 21-324, limits assumed) (assay: ELISA, coated antigen, antibody at 1000 ng/ml).
T5 construct: Bought recombinant protein; also called CADM4; IgSF4C
T5 sequence (looked up): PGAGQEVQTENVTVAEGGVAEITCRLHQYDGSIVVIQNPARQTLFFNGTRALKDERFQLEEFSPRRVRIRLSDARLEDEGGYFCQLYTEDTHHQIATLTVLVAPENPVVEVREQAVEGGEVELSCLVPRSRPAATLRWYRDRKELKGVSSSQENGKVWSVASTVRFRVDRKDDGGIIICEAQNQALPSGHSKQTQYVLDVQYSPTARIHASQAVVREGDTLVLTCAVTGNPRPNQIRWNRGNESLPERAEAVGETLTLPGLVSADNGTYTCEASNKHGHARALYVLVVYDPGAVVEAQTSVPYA
Protocol: as §1, §2, §3

Compared with B1, B2 is lower in OD detection value: 0.01 OD450 nm-650 nm for the first, 0.007 OD450 nm-650 nm for the second.

With B3 the OD detection value was 0.007 OD450 nm-650 nm.

The binders below were run against T6, Nectin-2 (UniProt Q92692 32-360, limits assumed) (assay: ELISA, coated antigen, antibody at 1000 ng/ml).
T6 construct: Bought recombinant protein; also called CD112; PVRL-2
T6 sequence (looked up): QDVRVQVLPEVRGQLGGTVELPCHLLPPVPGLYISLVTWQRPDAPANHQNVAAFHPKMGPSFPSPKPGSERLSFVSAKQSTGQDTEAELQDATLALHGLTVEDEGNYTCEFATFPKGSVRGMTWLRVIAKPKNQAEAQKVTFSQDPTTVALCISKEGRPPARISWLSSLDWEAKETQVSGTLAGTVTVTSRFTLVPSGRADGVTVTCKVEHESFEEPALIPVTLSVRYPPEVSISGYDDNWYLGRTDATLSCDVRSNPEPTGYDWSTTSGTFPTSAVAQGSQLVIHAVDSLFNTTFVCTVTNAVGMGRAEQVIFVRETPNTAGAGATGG
Protocol: as §1, §2, §3

First: B1
Second: B2
The OD detection value of the first is higher: 0.008 OD450 nm-650 nm for the first, 0.007 OD450 nm-650 nm for the second.

Binder B3 has an OD detection value of 0.007 OD450 nm-650 nm.

These binders were tested against T3, Nectin-3 (assay: ELISA, coated antigen, antibody at 1000 ng/ml).
Protocol: as §1, §2, §3

Compared with B1, B2 is lower in OD detection value: 0.008 OD450 nm-650 nm for the first, 0.007 OD450 nm-650 nm for the second.

Binder B3 has an OD detection value of 0.007 OD450 nm-650 nm.
